In paper PMC10534222:

Tests used:
[1] = target: FITC-labelled peptide (FITC)…; experiment: fluorescence polarisation
[2] = target: chicken Tapasin (chTapasin), luminal domain (chicken (Gallus gallus)); experiment: SPR
[3] = target: chicken Tapasin (chTapasin), luminal domain (chicken (Gallus gallus)); experiment: NMR titration

| Kd [1] [nM] | Kd [2] [nM] | lifetime of the complex [3] [ms] | Substance |
| --- | --- | --- | --- |
| 5.5 | – | – | empty open B*37:01/chTapasin complex (from UniProt P61769 21-119) |
| 6.16 | 1200 | > 200 | open HLA-B*37:01 (heavy chain G120C, β2m H31C, interchain disulfide), empty (UV-irradiated) (from UniProt P61769 21-119) (complex) |
